This passage reports binding results from publication PMC11855083.

The target in this series is T1, His6-NfxB (Pseudomonas aeruginosa PAO1?) (UniProt P32265).
T1 sequence: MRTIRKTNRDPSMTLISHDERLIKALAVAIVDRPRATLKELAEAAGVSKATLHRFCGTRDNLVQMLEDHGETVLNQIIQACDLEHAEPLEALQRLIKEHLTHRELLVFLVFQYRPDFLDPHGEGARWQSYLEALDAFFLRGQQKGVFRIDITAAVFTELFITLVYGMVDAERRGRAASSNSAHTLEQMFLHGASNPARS
Put plainly: EMSA. The conditions noted are these: pH 7.0, room temperature, 10 min ([…].
Regarding “ACGCAAATCAGCCATGACACACCCGACCGTTGATTGAAAACGGATCGAATGGTACTTTTTCGAGCTAATTGAGTCAATATTGTCTCAAATGATCTTTTGACAGCTAATTCCTTTGGACGCGAGGCCAGTTTTCTGCACAATGCGCACAATCAGAAAAACCAACCGGGACCCATCGATGACCCTGAT (double strand) [mexC promoter]”, the binding entry is given as “binds”. The entry for “ATCTTTCCTCCCGTGTGGCTCGCGCCACTACGCTATGCAAGCGCCCGCCACCATGGCAGGCGCTGTCGTTGAATGCCTCAGGCCTCTTTGGCCGAAGGCAGCTTGGA (double strand) [hcp1T (hcp1 promoter with potential NfxB motif truncated)]” is “no binding”; for “TCCAAGCTGCCTTCGGCCAAAGAGGCCTGAGGCATTCAACGACAGCGCCTGCCATGGTGGCGGGCGCTTGCATAGCGTAGTGGCGCGAGCCACACGGGAGGAAAGATGGCTGTTGATATGTTCATCAAGATCGGC (double strand) [hcp1 promoter (phcp1)]” it is “binds”.
